# Experimental data published in PMC6889138.
# Experiments:
# [1] = target: ^MsmClpP1 R168A, purified (Mycobacterium smegmatis); assay: AUC; oligomeric state of each purified protein alone, in the absence of z-LL (Fig. S4)
# [2] = target: ^MsmClpP1 Y110A (Mycobacterium smegmatis); assay: native gel or EMSA; 5 µg of purified protein on 4-16% Native-PAGE Novex Bis-Tris gels, stained with Coomassie Brilliant Blue R250
# [3] = target: ^MsmClpP1, wild type, purified (Mycobacterium smegmatis); assay: crystal structure; ^MsmClpP1 crystallised by vapor diffusion at 20 °C from sodium malonate pH 6.6-6.8; one heptamer in the asymmetric unit, tetradecamer from crystallographically related heptamers; 2.0 Å
# [4] = target: ^MsmClpP1, wild type, purified (Mycobacterium smegmatis); assay: AUC; oligomeric state of each purified protein alone, in the absence of z-LL (Fig. S4)
# [5] = target: ^MsmClpP1, wild type, purified (Mycobacterium smegmatis); assay: native gel or EMSA; 5 µg of purified protein on 4-16% Native-PAGE Novex Bis-Tris gels, stained with Coomassie Brilliant Blue R250
# [6] = target: ^MsmClpP2 R189A, purified (Mycobacterium smegmatis); assay: AUC; oligomeric state of each purified protein alone, in the absence of z-LL (Fig. S4)
# [7] = target: ^MsmClpP2, wild type, purified (Mycobacterium smegmatis); assay: as above
substance,measurement,setting,value
"^MsmClpP1 R168A, purified (enzyme)",stoichiometry N,[1],7
^MsmClpP1 Y110A (enzyme),stoichiometry N,[2],14
"^MsmClpP1, wild type, purified (enzyme)",stoichiometry N,[3],14
same,stoichiometry N,[4],7
same,stoichiometry N,[5],14
"^MsmClpP2 R189A, purified (enzyme)",stoichiometry N,[6],7
"^MsmClpP2, wild type, purified (enzyme)",stoichiometry N,[7],7
